This note sets out measurements from US20030148973A1, “MAGE-A1 peptides for treating or preventing cancer” (priority 2001, published 2003).

The assay addresses T1, HLA-A0201 molecules on T2 cells (Homo sapiens, UniProt P04439, D140Y/D185E/D98H/E176V/E277Q/G131W/G231S/I119V/I121R/I166T/I218V/L300P/L318F/N151K/N90K/P208A/P217A/Q86G/Q94H/R138H/R169H/T345S).
T1 construct: endogenous in cells; host or cells: T2 cell line (from Dr. Peter Creswell, Yale University)
The assay can be described thus: Binding and stabilization of surface HLA-A0201 on T2 cells (BB7.2 antibody, flow cytometry). The settings on record: 20 μg peptide pulsed onto 10^6 denatured T2 cells, 4 hours at 26° C.; BB7.2 binding detected with FITC conjugate. As for the experimental part:
The ability of the MAGE-A1 derived peptides to be presented in the context of HLA-A2 was determined by the ability of such peptides stabilize membrane-bound HLA-A0201 molecules The T2 cell line (Dr. Peter Creswell, Yale University) has been well documented to have a defective TAP (e.g. Transporter for Antigen Processing) transporter function. As a result, the majority of intracellularly generated peptides are not transported into the endoplasmic reticulum and thus are unable to associate with newly synthesized HLA class 1 MHC molecules (e.g. HLA-A0201; Salter, R D and Creswell, P. (1986) EMBO J 5:943). […] The stability of the surface HLA-A0201 molecules can be restored upon interaction with suitable exogenous peptides. […]
In order to determine whether the identified nonapeptides can be presented by HLA-A0201, T2 cells were propagated in RPMI complete medium (RPMI medium supplemented with 10% heat-inactivated bovine serum, 120.0 units per ml of penicillin G sodium, 120 μg per ml of streptomycin sulphate, and 0.35 mg per ml of L-glutamine). The ability of MAGE-A1 derived peptides to bind and stabilize surface HLA-A0201 molecules on T2 cells was determined utilizing a standard protocol (Deng, Y. (1997) J Immunol 158:1507-1515). […] The binding of BB7.2 was detected via the addition of 1.0 μg per test of goat anti-mouse IgG-Fc fluorescein (FITC) conjugate (BETHYL Laboratories Inc). […]

Take “CLGLSYDGL (listed as Homo sapiens) [MAGE-A1 174]”: the “Fluorescence Index (FI)” value was 1.73.
